Measured values as given in article PMC5385372.

Target: sGFP-foldon
Assay: single-molecule fluorescence brightness analysis; GFP-fused proteins expressed in LTE (2-3 h, 27 °C), diluted about 10 times in buffer A (25 mM HEPES, 50 mM NaCl), 1-100 nanomolar, freely diffusing through a confocal volume, room temperature; also with serial dilution of the plasmid to vary the final expression level

Sequence of sGFP-foldon (P10104 2-487): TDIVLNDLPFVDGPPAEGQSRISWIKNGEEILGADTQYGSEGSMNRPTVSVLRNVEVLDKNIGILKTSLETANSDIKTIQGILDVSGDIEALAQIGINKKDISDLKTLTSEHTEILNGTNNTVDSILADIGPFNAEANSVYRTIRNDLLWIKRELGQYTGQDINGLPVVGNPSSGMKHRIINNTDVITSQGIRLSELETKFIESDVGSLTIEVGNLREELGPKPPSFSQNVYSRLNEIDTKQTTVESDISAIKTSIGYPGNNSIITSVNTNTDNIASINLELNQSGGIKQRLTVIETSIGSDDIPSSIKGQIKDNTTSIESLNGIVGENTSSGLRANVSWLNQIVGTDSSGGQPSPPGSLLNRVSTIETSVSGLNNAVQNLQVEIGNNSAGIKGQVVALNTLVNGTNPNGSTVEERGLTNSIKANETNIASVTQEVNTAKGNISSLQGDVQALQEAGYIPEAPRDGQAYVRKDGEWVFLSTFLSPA

sGFP-foldon (domain or fragment)
stoichiometry N: 3
